In the assay the target is T1, human TRADD death domain (199–312) (human, UniProt Q15628 199-312).
T1 sequence: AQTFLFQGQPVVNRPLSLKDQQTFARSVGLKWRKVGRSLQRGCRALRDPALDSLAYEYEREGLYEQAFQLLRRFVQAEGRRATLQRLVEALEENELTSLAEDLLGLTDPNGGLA
Put plainly: NMR solution structure.

B1: human p75 neurotrophin receptor death domain (330–427) (domain or fragment)
chain: KGDGGLYSSLPPAKREEVEKLLNGSAGDTWRHLAGELGYQPEHIDSFTHEACPVRALLASWATQDSATLDALLAALRRIQRADLVESLCSESTATSPV
For the molecule B1, the binding result was “binds”.

These data come from PMC8318917 (The Journal of Biological Chemistry, 2021).
